# Measured values: US8703913B2, “Sensor” (Medical Research Council, priority 2008, dated 2014)
# Test: Screening mutant/fluorophore combinations for a fluorescence response to ADP
# Conditions: ParM mutant/fluorophore combination
row,Molecule,"Fluorescence change, ratio of the intensity in presence of 1 mM ADP to that in the absence of ADP"
1,"MDCC-ParM (D63C): ParM D63C/C287A labeled with MDCC (conjugate, UniProt P11904 1-320, looked up, variant D63C C287A, MDCC label) Plasmid segregation protein …: MLVFIDDGSTNIKLQWQESDGTIKQHISPNSFKREWAVSFGDKKVFNYTLNGEQYSFDPISPCAVVTTNIAWQYSDVNVVAVHHALLTSGLPVSEVDIVCTLPLTEYYDRNNQPNTENIERKKANFRKKITLNGGDTFTIKDVKVMPESIPAGYEVLQELDELDSLLIIDLGGTTLDISQVMGKLSGISKIYGDSSLGVSLVTSAVKDALSLARTKGSSYLADDIIIHRKDNNYLKQRINDENKISIVTEAMNEALRKLEQRVLNTLNEFSGYTHVMVIGGGAELIADAVKKHTQIRDERFFKTNNSQYDLVNGMYLIGN",0.48
2,"MDCC-ParM (S204C): ParM S204C/C287A labeled with MDCC (conjugate, UniProt P11904 1-320, looked up, variant S204C C287A, MDCC label) Plasmid segregation protein …: MLVFIDDGSTNIKLQWQESDGTIKQHISPNSFKREWAVSFGDKKVFNYTLNGEQYSFDPISPDAVVTTNIAWQYSDVNVVAVHHALLTSGLPVSEVDIVCTLPLTEYYDRNNQPNTENIERKKANFRKKITLNGGDTFTIKDVKVMPESIPAGYEVLQELDELDSLLIIDLGGTTLDISQVMGKLSGISKIYGDSSLGVSLVTCAVKDALSLARTKGSSYLADDIIIHRKDNNYLKQRINDENKISIVTEAMNEALRKLEQRVLNTLNEFSGYTHVMVIGGGAELIADAVKKHTQIRDERFFKTNNSQYDLVNGMYLIGN",0.68
3,"MDCC-ParM (T215C): ParM T215C/C287A labeled with MDCC (conjugate, UniProt P11904 1-320, looked up, variant T215C C287A, MDCC label) Plasmid segregation protein …: MLVFIDDGSTNIKLQWQESDGTIKQHISPNSFKREWAVSFGDKKVFNYTLNGEQYSFDPISPDAVVTTNIAWQYSDVNVVAVHHALLTSGLPVSEVDIVCTLPLTEYYDRNNQPNTENIERKKANFRKKITLNGGDTFTIKDVKVMPESIPAGYEVLQELDELDSLLIIDLGGTTLDISQVMGKLSGISKIYGDSSLGVSLVTSAVKDALSLARCKGSSYLADDIIIHRKDNNYLKQRINDENKISIVTEAMNEALRKLEQRVLNTLNEFSGYTHVMVIGGGAELIADAVKKHTQIRDERFFKTNNSQYDLVNGMYLIGN",0.74
4,"MPrCC-ParM (I27C): ParM I27C/C287A labeled with MPrCC (conjugate, UniProt P11904 1-320, looked up, variant I27C C287A, MPrCC label) Plasmid segregation protein …: MLVFIDDGSTNIKLQWQESDGTIKQHCSPNSFKREWAVSFGDKKVFNYTLNGEQYSFDPISPDAVVTTNIAWQYSDVNVVAVHHALLTSGLPVSEVDIVCTLPLTEYYDRNNQPNTENIERKKANFRKKITLNGGDTFTIKDVKVMPESIPAGYEVLQELDELDSLLIIDLGGTTLDISQVMGKLSGISKIYGDSSLGVSLVTSAVKDALSLARTKGSSYLADDIIIHRKDNNYLKQRINDENKISIVTEAMNEALRKLEQRVLNTLNEFSGYTHVMVIGGGAELIADAVKKHTQIRDERFFKTNNSQYDLVNGMYLIGN",1.1
5,"MPrCC-ParM (T215C): ParM T215C/C287A labeled with MPrCC (conjugate, UniProt P11904 1-320, looked up, variant T215C C287A, MPrCC label) Plasmid segregation protein …: MLVFIDDGSTNIKLQWQESDGTIKQHISPNSFKREWAVSFGDKKVFNYTLNGEQYSFDPISPDAVVTTNIAWQYSDVNVVAVHHALLTSGLPVSEVDIVCTLPLTEYYDRNNQPNTENIERKKANFRKKITLNGGDTFTIKDVKVMPESIPAGYEVLQELDELDSLLIIDLGGTTLDISQVMGKLSGISKIYGDSSLGVSLVTSAVKDALSLARCKGSSYLADDIIIHRKDNNYLKQRINDENKISIVTEAMNEALRKLEQRVLNTLNEFSGYTHVMVIGGGAELIADAVKKHTQIRDERFFKTNNSQYDLVNGMYLIGN",0.78
6,"IDCC-ParM (WT): wild-type ParM labeled with IDCC (conjugate, UniProt P11904 1-320, looked up, IDCC label) Plasmid segregation protein …: MLVFIDDGSTNIKLQWQESDGTIKQHISPNSFKREWAVSFGDKKVFNYTLNGEQYSFDPISPDAVVTTNIAWQYSDVNVVAVHHALLTSGLPVSEVDIVCTLPLTEYYDRNNQPNTENIERKKANFRKKITLNGGDTFTIKDVKVMPESIPAGYEVLQELDELDSLLIIDLGGTTLDISQVMGKLSGISKIYGDSSLGVSLVTSAVKDALSLARTKGSSYLADDIIIHRKDNNYLKQRINDENKISIVTEAMNEALRKLEQRVLNTLNEFSGYTHVMVIGGGAELICDAVKKHTQIRDERFFKTNNSQYDLVNGMYLIGN",0.34
7,"IDCC-ParM (I27C): ParM I27C/C287A labeled with IDCC (conjugate, UniProt P11904 1-320, looked up, variant I27C C287A, IDCC label) Plasmid segregation protein …: MLVFIDDGSTNIKLQWQESDGTIKQHCSPNSFKREWAVSFGDKKVFNYTLNGEQYSFDPISPDAVVTTNIAWQYSDVNVVAVHHALLTSGLPVSEVDIVCTLPLTEYYDRNNQPNTENIERKKANFRKKITLNGGDTFTIKDVKVMPESIPAGYEVLQELDELDSLLIIDLGGTTLDISQVMGKLSGISKIYGDSSLGVSLVTSAVKDALSLARTKGSSYLADDIIIHRKDNNYLKQRINDENKISIVTEAMNEALRKLEQRVLNTLNEFSGYTHVMVIGGGAELIADAVKKHTQIRDERFFKTNNSQYDLVNGMYLIGN",1.5
8,"IDCC-ParM (D58C): ParM D58C/C287A labeled with IDCC (conjugate, UniProt P11904 1-320, looked up, variant D58C C287A, IDCC label) Plasmid segregation protein …: MLVFIDDGSTNIKLQWQESDGTIKQHISPNSFKREWAVSFGDKKVFNYTLNGEQYSFCPISPDAVVTTNIAWQYSDVNVVAVHHALLTSGLPVSEVDIVCTLPLTEYYDRNNQPNTENIERKKANFRKKITLNGGDTFTIKDVKVMPESIPAGYEVLQELDELDSLLIIDLGGTTLDISQVMGKLSGISKIYGDSSLGVSLVTSAVKDALSLARTKGSSYLADDIIIHRKDNNYLKQRINDENKISIVTEAMNEALRKLEQRVLNTLNEFSGYTHVMVIGGGAELIADAVKKHTQIRDERFFKTNNSQYDLVNGMYLIGN",0.93
9,"IDCC-ParM (D63C): ParM D63C/C287A labeled with IDCC (conjugate, UniProt P11904 1-320, looked up, variant D63C C287A, IDCC label) Plasmid segregation protein …: MLVFIDDGSTNIKLQWQESDGTIKQHISPNSFKREWAVSFGDKKVFNYTLNGEQYSFDPISPCAVVTTNIAWQYSDVNVVAVHHALLTSGLPVSEVDIVCTLPLTEYYDRNNQPNTENIERKKANFRKKITLNGGDTFTIKDVKVMPESIPAGYEVLQELDELDSLLIIDLGGTTLDISQVMGKLSGISKIYGDSSLGVSLVTSAVKDALSLARTKGSSYLADDIIIHRKDNNYLKQRINDENKISIVTEAMNEALRKLEQRVLNTLNEFSGYTHVMVIGGGAELIADAVKKHTQIRDERFFKTNNSQYDLVNGMYLIGN",0.53
10,"IDCC-ParM (S204C): ParM S204C/C287A labeled with IDCC (conjugate, UniProt P11904 1-320, looked up, variant S204C C287A, IDCC label) Plasmid segregation protein …: MLVFIDDGSTNIKLQWQESDGTIKQHISPNSFKREWAVSFGDKKVFNYTLNGEQYSFDPISPDAVVTTNIAWQYSDVNVVAVHHALLTSGLPVSEVDIVCTLPLTEYYDRNNQPNTENIERKKANFRKKITLNGGDTFTIKDVKVMPESIPAGYEVLQELDELDSLLIIDLGGTTLDISQVMGKLSGISKIYGDSSLGVSLVTCAVKDALSLARTKGSSYLADDIIIHRKDNNYLKQRINDENKISIVTEAMNEALRKLEQRVLNTLNEFSGYTHVMVIGGGAELIADAVKKHTQIRDERFFKTNNSQYDLVNGMYLIGN",0.80
